Data as given in publication PMC8146883, “A New Thermophilic Ene-Reductase from the Filamentous Anoxygenic Phototrophic Bacterium Chloroflexus aggregans” (Microorganisms, 2021).

Columns and labels:
Assay in all cases: purified protein
Assay type in all cases: biochemical, Chloroflexus aggregans
Conditions in all cases: 100 μM NADPH, 50 mM Tris-HCl pH 8.0, 25 °C, 1% ethanol, 200 nM enzyme
purified protein [1] = substrate: C=CC(=O)CCCCC
purified protein [2] = substrate: CC1=CC(=O)CC(C)(C)C1=O
purified protein [3] = substrate: O=C1C=CCCC1

B1: CaOYE (Chloroflexus aggregans DSM 9485) (protein)
chain: MQPHLFTPLTIGSVTLRNRIGMSPMCQYSAVDGFPTDWHLMHLGARAAGGVGLIILEATAVSPEGRISPFDLGIWSDDHIAALSRIVKLIESLGAVAGIQLAHAGRKASVGRPWEGGKPIAPANGGWPVVGPTAEPFAPGYPTPIPLDAAGIARVVADFATATKRARAAGFRWIEIHAAHGYLLHNFLSPLGNDRNDEYGGDLRGRVRLLSEVTAAVRAEWPSDLPLAVRLSCSDWTPEGLTIADTVEVARMLREQGVDLIDCSSGGIAPGITIPVGEGYQVPFAAQVRREANIATAAVGLITRPEHADAIVRNGDADLVLLGRELLRDPHWPLRAARALGHDLAPPPQYLRAW
notes: full-length ORF in pET-28a(+) (NdeI/BamHI), N-terminal His6-tag, E. coli BL21(DE3); model visible Met1 to Trp354; monomer in solution, dimer in crystal
- Km (purified protein [1]): 10.32 ± 1.438 mM
- kcat (purified protein [1]): 12.1 ± 0.661 s⁻¹
- kcat/Km (purified protein [1]): 1170 M⁻¹ s⁻¹
- Km (purified protein [2]): 0.013 ± 0.002 mM
- kcat (purified protein [2]): 2.27 ± 0.055 s⁻¹
- kcat/Km (purified protein [2]): 175000 M⁻¹ s⁻¹
- Km (purified protein [3]): 5.520 ± 0.627 mM
- kcat (purified protein [3]): 3.82 ± 0.176 s⁻¹
- kcat/Km (purified protein [3]): 690 M⁻¹ s⁻¹
